Here are results for 25 molecules from patent US20170247475A1 (Boehringer Ingelheim, published 2017).

To fix the notation:
T1: human VEGF-C (human, UniProt P49767 103-227)
T1 construct: also called hVEGF-C
T1 sequence (looked up): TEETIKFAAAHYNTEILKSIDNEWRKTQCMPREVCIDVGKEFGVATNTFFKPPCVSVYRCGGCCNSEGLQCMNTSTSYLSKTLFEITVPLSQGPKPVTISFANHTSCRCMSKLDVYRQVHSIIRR

B1: VEGFBII113E03 (VHH)
VHH: EVQLVESGGGLVQTGDSLRLSCEVSGRTFSSYSMGWFRQAQGKEREFVVAISKGGYKYDSVSLEGRFTISKDNAKNTVYLQMNSLRPEDTAVYYCASSRAYGSSRLRLADTYEYWGQGTLVTVSS
B2: VEGFBII118E10 (VHH)
VHH: B1 VHH with S60A, M82I, R86K, L120Q
notes: VEGFBII23B04 with the S60A mutation, purified protein
B3: VEGFBII114D02 (VHH)
VHH: B1 VHH with D16G, Q41P, K71R, M82I
B4: VEGFBII114C09 (VHH)
VHH: B1 VHH with T14P, Q41P, M82I
B5: VEGFBII114D03 (VHH)
VHH: B1 VHH with E23A, M82I
B6: human VEGFR2-Fc chimera (Fc fusion, UniProt P35968 20-764, looked up, not shown: a dimerising Fc or GST)
chain: ASVGLPSVSLDLPRLSIQKDILTIKANTTLQITCRGQRDLDWLWPNNQSGSEQRVEVTECSDGLFCKTLTIPKVIGNDTGAYKCFYRETDLASVIYVYVQDYRSPFIASVSDQHGVVYITENKNKTVVIPCLGSISNLNVSLCARYPEKRFVPDGNRISWDSKKGFTIPSYMISYAGMVFCEAKINDESYQSIMYIVVVVGYRIYDVVLSPSHGIELSVGEKLVLNCTARTELNVGIDFNWEYPSSKHQHKKLVNRDLKTQSGSEMKKFLSTLTIDGVTRSDQGLYTCAASSGLMTKKNSTFVRVHEKPFVAFGSGMESLVEATVGERVRIPAKYLGYPPPEIKWYKNGIPLESNHTIKAGHVLTIMEVSERDTGNYTVILTNPISKEKQSHVVSLVVYVPPQIGEKSLISPVDSYQYGTTQTLTCTVYAIPPPHHIHWYWQLEEECANEPSQAVSVTNPYPCEEWRSVEDFQGGNKIEVNKNQFALIEGKNKTVSTLVIQAANVSALYKCEAVNKVGRGERVISFHVTRGPEITLQPDMQPTEQESVSLWCTADRSTFENLTWYKLGPQPLPIHVGELPTPVCKNLDTLWKLNATMFSNSTNDILIMELKNASLQDQGDYVCLAQDRKTKKRHCVVRQLTVLERVAPTITGNLENQTTSIGESIEVSCTASGNPPPQIMWFKDNETLVEDSGIVLKDGNRNLTIRRVRKEDEGLYTCQACSVLGCAKVEAFFIIEGAQEKTNLE
notes: bought (R&D Systems); also called hVEGFR2-Fc; VEGFR2-huFc
B7: VEGFBII119G11 (VHH)
VHH: EVQLVESGGGLVQPGGSLRLSCAASGIRFMSMAWYRQAPGKQRELVARISSGGTTAYADSVKGRFTISRDNSKNTVYLQMNSLRAEDTAVYYCNTFSSRPNPWGQGTLVTVSS
notes: humanization variant of VEGFBII5B05; tested as periplasmic extract
B8: VEGFBII120E10 (VHH)
VHH: B7 VHH with A23V, M30I, Q42H, A58V, R84K, Q105A, L108Q
notes: VEGFBII5B05 with the M30I mutation; tested as periplasmic extract
B9: VEGFBII41C05 (VHH)
VHH: EVQLVESGGGLVQAGGSLRLSCAASGRTFSVYTMGWFRQAPGKEREFVATISRTGDRTSYANSVKGRFTISRENAKNTVYLQMNSLKPEDTAVYSCAAGPIAPSPRPREYYYWGQGTQVTVSS
B10: VEGFBII11E05 (VHH)
VHH: EVQLVESGGGLVQPGGSLRLSCASSGRLFSFSAMGWFRQAPGKEREFVAAFKWSGSTTYYADYVKGRFTISTDNAKNILFLQMNSLKPEDTAIYYCAVDRFYTGRYYSSDEYDYWGQGTQVTVSS
B11: VEGFBII05B03 (VHH)
VHH: EVQLVESGGGLAQAGDSLRLSCAASGRSFSHYNMGWFRQAPGKEREFVASIRGGGGSTTYANSVKDRFTISRENAKNTVYLQMNSLKPEDTAVYYCAATAFYRGPYDYDYWGQGTQVTVSS
B12: VEGFBII10C07 (VHH)
VHH: EVQLVESGGGLVQAGGSLSLSCAASARAFSNYAMGWFRQVPGREREFVAVITRSPSNTYYTDSVKGRFTISRDNAKNIVYLQMNSLKPEDTAVYYCAAHYWNSDSYTYTDSRWYNYWGQGTQVTVSS
B13: VEGFBII11F12 (VHH)
VHH: EVQLVESGGGLVQSGGSLRLSCAASGRSFSSLAMGWFRQVPGKDREFVASISQSGITTSYADSVKSRFTISRDSAKNTVYLQMNLLKPEDTAVYYCATSVFYSTALTRPVDYRYWGQGTQVTVSS
B14: VEGFBII10G05 (VHH)
VHH: EVQLVESGGGLVQAGESLRLSCVASGITFSNYNMGWFRQAPGKEREFVATIRHHGYDTYYAESVKGRFTISRDNAKNTVYLQMNSLKPEDTALYSCAKKLFWDMDPKTGFSSWGQGTQVTVSS
B15: VEGFBII05B02 (VHH)
VHH: EVQLVESGGGLVQAGGSLRLSCAASGRTFSTDDVGWFRQAPGKEREFVAVIRWSTGGTYTSDSVKGRFTLSRDNAKNTMYLQMNSLKPEDTAVYYCAARSRPLGAGAWYSGEKHYNYWGQGTQVTVSS
B16: VEGFBII11D09 (VHH)
VHH: EEQLVESGGGLVQAGGSLMLSCAASGRALSSYAIGWFRQAPGREREFVARISWSGANTYYADSVKGRFTISRGNAKNTVYLQMNSLKPEDTAAYYCAAQTTSKYDNYDARAYGYWGQGTQVTVSS
B17: VEGFBII08D09 (VHH)
VHH: EVQLVESGGGLVQAGGSLRLSCAASGRSFSDNVMGWFRQAAGKEREFVAHISRGGSRTEYAESVKGRFTISRDNTKKTMYLQMNSLKPEDTAVYYCAASRSVALATARPYDYWGQGTQVTVSS
B18: VEGFBII11C08 (VHH)
VHH: EVQLVESGGGLVQAGGSLRLSCAASGRTLSSYGLGWFRQAPGKEREFVAAIGWSGSSTYYADSVKGRFTVSVDNAKNTVYLKMNSLEPEDTAVYYCAAKVRNFNSDWDLLTSYNYWGQGTQVTVSS
B19: VEGFBII07D08 (VHH)
VHH: EVQLVESGGGLVQTGGSLRLSCAASGRTFSNYAMAWFRQAPGKEREFVSAINQRGSNTNYADSVKGRFTISRDSAKNSVFLQMNSLKPEDTAVYYCAASTWYGYSTYARREEYRYWGQGTQVTVSS
B20: VEGFBII10E07 (VHH)
VHH: EVQLVESGGGLVQAGGSLRLSCAASGRTFSNYAMGWFRQAPGKERVLVADISSSGINTYVADAVKGRFTISRDNAKNTVYLQMNSLKPEDTAVYYCAASAWWYSQMARDNYRYWGQGTQVTVSS
B21: VEGFBII86H09 (VHH)
VHH: EVQLVESGGGLVQAGGSLRLSCTASGSAFKSYRMGWFRRTPGKEDEFVASISWTYGSTFYADSVKGRFTMSRDKAKNAGYLQMNSLKPEDTALYYCAAGAQSDRYNIRSYDYWGQGTQVTVSS
B22: VEGFBII06G02 (VHH)
VHH: EVQLVESGGGLVQPGGSLRLSCAASGNIFSNNAMAWYRQAPGKQRELVARISSGGGFTYYLDSVKGRFTVSRDNAKNTVYLQMNSLKPEDTAVYYCNAAYRTYNYWGQGTQVTVSS
B23: VEGFBII10G04 (VHH)
VHH: EVQLVESGGGLVQAGGSLRLSCAASGDTLSRYAMGWFRQAPGKEREFVASINTSGKRTSYADSMKGRFAVSRDNAKNTGYLQMNSLKLEDTATYYCAADRFFGSDSNEPRAYRYWGQGTQVTVSS
B24: VEGFBII03D12 (VHH)
VHH: EVQLVESGGGLVQAGGSLRLSCTASTSIYTITVMAWFRQAPGKEREFVAAITWSAPTTYYADSVKGRFTISRDNAKNTVYLRMNSLKPEDSAIYYCAADRFKGRSIVTPSDYRYWGQGTQVTVSS
B25: VEGFBII11E04 (VHH)
VHH: EVQLVESGGGLVQAGGSLRLSCAASGRTFSSYAMGWFRQAPGKEREFVATISQSGYSTYYADSVKGRFTISRDNAKNTVNLQMNSLKPEDTAVYYCAADPFYSYGSPSPYRYWGQGTQVTVSS

Changes are numbered by the printed parent chain. In names and notes the source's numbering stands.

T2 sequence (P15692 other isoform, or with tags, fused parts or gaps limits assumed): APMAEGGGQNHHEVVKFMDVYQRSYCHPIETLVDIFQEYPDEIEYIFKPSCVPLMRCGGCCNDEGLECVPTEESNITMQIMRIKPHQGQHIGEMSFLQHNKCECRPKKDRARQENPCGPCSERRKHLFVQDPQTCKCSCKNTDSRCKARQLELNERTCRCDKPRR

One assay concerns the target T2, recombinant human VEGF165 (human, UniProt P15692-4 27-191).
T2 construct: also called hVEGF165; rhVEGF165
Kind of assay: VEGF165/VEGFR2 AlphaScreen.
For the molecule B1, the “% inhibition” value was determined as 100% and the IC50 is 290 pM.
For B2, in that order: 100% and 189 pM.
The like results for B3 were, in that order, 100% and 199 pM.
For B4, in that order: 100% and 215 pM.
With B5, the “% inhibition” value was found to be 100% and the IC50 was found to be 227 pM.

The target of another assay is T1, human VEGF-C. As to the kind of experiment: binding ELISA on coated VEGFC. Here is the method: Binding to VEGFB, VEGFC, VEGFD and PIGF is assessed via a solid phase binding ELISA. In brief, VEGFB, VEGFC, VEGFD and PIGF (R&D Systems, Minneapolis, Minn., USA) are coated overnight at 4° C. at 1 μg/mL in a 96-well MaxiSorp plate (Nunc, Wiesbaden, Germany). Wells are blocked with a casein solution (1% in PBS). […] As positive controls serial dilutions of the appropriate receptors are taken along and detected with horseradish peroxidase (HRP)-conjugated goat anti-human IgG, Fc specific antibody (Jackson Immuno Research Laboratories Inc., West Grove, Pa., USA) and a subsequent enzymatic reaction in the presence of the substrate TMB (3,3′,5,5′-tetramentylbenzidine) (Pierce, Rockford, Ill., USA).
Turning to B6, the “EC50 (read off the curve)” value was roughly 4000 pM.

The target in another assay is T2, recombinant human VEGF165. Kind of assay: ProteOn, periplasmic extract 1/10 on hVEGF165 chip. The text has this:
One additional variant is constructed in which the potential oxidation site at position M30 (CDR1 region, see FIG. 19 indicated as bold italic residue) is removed by introduction of a M30I mutation.
B7: the “Binding level (RU)” value was 234 RU and the koff was found to be 0.0775 s⁻¹.
In the case of B8, the “Binding level (RU)” value amounted to 257 RU and the koff is 0.0468 s⁻¹.

For another assay, the target named is T2, recombinant human VEGF165. Kind of assay: Biacore epitope binning, VEGF165 captured on immobilised VEGFBII23B04. The procedure:
Biacore-based epitope binning experiments are performed to investigate which VEGF binders bind to a similar or overlapping epitope as VEGFBII23B04. To this end, VEGFBII23B04 is immobilized on a CM5 sensor chip. […] Purified VHHs (100 nM) or periplasmic extracts (1/10 diluted) are then injected with a surface contact time of 240 seconds and a flow rate of 10 uL/minute. Between different samples, the surface is regenerated with regeneration buffer (100 mM HCl). Processed curves are evaluated with Biacore T100 Evaluation software.
With B9, the binding result is “binds”.
For the molecule B10, the binding result is listed as “binds”.
Consider B11, for which the binding result is listed as “binds”.
On the same count and under the same terms, the entry for B12 is “binds”.
On the same count and under the same terms, the entry for B13 is “binds”; for B14 it is “binds”.
Consider B15, for which the binding result is “binds”.
Still for that read-out and setting: the value for B16 was “binds”.
Turning to B17, the binding result was “binds”.
The same measure, in the same setting: the value for B18 was “binds”; that for B19 was “binds”; that for B20 was “binds”.
B21: the binding result is recorded as “binds”.
Regarding B22, the binding result was “binds”.
Turning to B23, the binding result is “binds”.
In the case of B24, the binding result is on record as “binds”.
The same measure, in the same setting: the value for B25 was “binds”.
